In publication PMC11186044, “Rationally Engineering pH Adaptation of Acid‐Induced Arginine Decarboxylase from Escherichia coli to Alkaline Environments to Efficiently Biosynthesize Putrescine” (Advanced Science, 2024):
Positions count from the first letter of the chain named. Names and notes keep the numbering of the source.

T1: SpeB (Escherichia coli, UniProt P60651)
T1 construct: agmatinase; construct and assay details only in supplement
T1 sequence (P60651 1-306): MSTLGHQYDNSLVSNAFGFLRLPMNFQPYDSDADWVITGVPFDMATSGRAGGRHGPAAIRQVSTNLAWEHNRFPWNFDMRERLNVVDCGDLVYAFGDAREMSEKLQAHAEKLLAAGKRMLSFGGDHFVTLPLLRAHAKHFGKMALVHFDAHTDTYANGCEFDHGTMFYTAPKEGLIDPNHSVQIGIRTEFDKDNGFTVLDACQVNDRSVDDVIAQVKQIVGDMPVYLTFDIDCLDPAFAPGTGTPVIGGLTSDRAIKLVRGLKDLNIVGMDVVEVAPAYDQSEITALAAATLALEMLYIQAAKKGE

B1: AdiA (Escherichia coli K-12) (protein)
chain: MKVLIVESEFLHQDTWVGNAVERLADALSQQNVTVIKSTSFDDGFAILSSNEAIDCLMFSYQMEHPDEHQNVRQLIGKLHERQQNVPVFLLGDREKALAAMDRDLLELVDEFAWILEDTADFIAGRAVAAMTRYRQQLLPPLFSALMKYSDIHEYSWAAPGHQGGVGFTKTPAGRFYHDYYGENLFRTDMGIERTSLGSLLDHTGAFGESEKYAARVFGADRSWSVVVGTSGSNRTIMQACMTDNDVVVVDRNCHKSIEQGLMLTGAKPVYMVPSRNRYGIIGPIYPQEMQPETLQKKISESPLTKDKAGQKPSYCVVTNCTYDGVCYNAKEAQDLLEKTSDRLHFDEAWYGYARFNPIYADHYAMRGEPGDHNGPTVFATHSTHKLLNALSQASYIHVREGRGAINFSRFNQAYMMHATTSPLYAICASNDVAVSMMDGNSGLSLTQEVIDEAVDFRQAMARLYKEFTADGSWFFKPWNKEVVTDPQTGKTYDFADAPTKLLTTVQDCWVMHPGESWHGFKDIPDNWSMLDPIKVSILAPGMGEDGELEETGVPAALVTAWLGRHGIVPTRTTDFQIMFLFSMGVTRGKWGTLVNTLCSFKRHYDANTPLAQVMPELVEQYPDTYANMGIHDLGDTMFAWLKENNPGARLNEAYSGLPVAEVTPREAYNAIVDNNVELVSIENLPGRIAANSVIPYPPGIPMLLSGENFGDKNSPQVSYLRSLQSWDHHFPGFEHETEGTEIIDGIYHVMCVKA
notes: recombinant full-length acid-induced arginine decarboxylase; homodecamer (five dimers) with PLP; plasmids in supplement
B2: AdiA (Escherichia coli K-12; H736E) (protein)
chain: B1 chain with H736E
notes: as for B1
B3: AdiA (Escherichia coli K-12; E467K/H736E) (protein)
chain: B1 chain with E467K, H736E
notes: as for B1
B4: AdiA (Escherichia coli K-12; E467K) (protein)
chain: B1 chain with E467K
notes: as for B1

Legend:
[1] = molecular target: T1, SpeB; assay: agmatinase activity versus pH (details in supplement); assay type: biochemical; conditions: alkaline pH preferred; enzyme preparation not given
[2] = substrate: N=C(N)NCCC[C@H](N)C(=O)O; assay: agmatine formation by HPLC, Michaelis-Menten fit; assay type: biochemical, Escherichia coli; conditions: pH 7.0, 37 °C, 0.5 mmol·L^−1 PLP, 2.5 mmol·L^−1 MgSO4, 5 mmol·L^−1 DTT
Source text: agmatine formation by HPLC, Michaelis-Menten fit on AdiA

| Molecule | agmatinase activity versus pH (details in supplement) [1] | Km [2] | kcat [2] | kcat/Km [2] |
| --- | --- | --- | --- | --- |
| N=C(N)NCCCCN [agmatine] | SpeB, agmatinase that catalyzes the synthesis of putrescine from agmatine | – | – | – |
| B1 | – | 12.08 ± 0.86 mM | 3.54 ± 0.28 s⁻¹ | 290 M⁻¹ s⁻¹ |
| B2 | – | 15.27 ± 0.79 mM | 17.5 ± 0.55 s⁻¹ | 1150 M⁻¹ s⁻¹ |
| B3 | – | 15.70 ± 0.87 mM | 29.2 ± 0.44 s⁻¹ | 1860 M⁻¹ s⁻¹ |
| B4 | – | 14.30 ± 0.64 mM | 15.2 ± 0.23 s⁻¹ | 1060 M⁻¹ s⁻¹ |
